This is an account of results in the RNAGym collection of RNA variant scans (doi:10.1093/molbev/msab373).

Sequences and labels used below:
B1: Azoarcus group I ribozyme (parent)
chain: GUGCCUUGCGCCGGGAAACCACGCAAGGGAUGGUGUCAAAUUCGGCGAAACCUAAGCGCCCGCCCGGGCGUAUGGCAACGCCGAGCCAAGCUUCGGCGCCUGCGCCGAUGAAGGUGUAGAGACUAGACGGCACCCACCUAAGGCAAACGCUAUGGUGAAGGCAUAGUCCAGGGAGUGGCGAAAGUCACACAAACCGG

This data set covers variants of B1. The data set can be described thus: reverse-splicing fitness (ratio to wild type); higher = more active; in vitro selection; Mg2+ level not given. The procedure, abridged:
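An in vitro group I ribozyme library with randomized positions was T7-transcribed and gel-purified. In triplicate, 10 pmol RNA in EPPS pH 7.5 was reacted with 50 pmoles of a 30-nt RNA substrate for 1 h at 37 °C across several added MgCl2 levels (1–48 mM), then stopped with EDTA. Products were reverse transcribed from a substrate-complementary primer, PCR-amplified and sequenced (HiSeq 4000). Fitness is a variant's read proportion after selection over that before, normalised to wild type.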
With GUGCCUUGCGCCGGGAAACCACGCAAGGGAUGGUGUCAAAUUCGGCGAAACCUAAGCGCCCGCCCGGGCGUAUGGCAACGCGGAGCCAAGCUUCGGCGCCUGCGCCGAUGCAGGUGUAGUGACUAGACGGCACCCACCUAAGGCAAACGUUAUGGUGAAGGCAUAGUCCAGGGAGGGGCGAAAGUCACACAAACCGG [C82G A111C A120U C150U U176G], the reverse-splicing fitness is 0.00397.
With GUGCCUUGCGCCGGGAAACCACGCAAGGGAUGGUGUCAAAUUCGGCGAAACCUAAGCGCCCGCCCGGGCGUAUGGCAACGCGGAGCCAAGCUUCGGCGCCUGCGCCGAUGCAGGUGUAGAGACUAGACGGCACCCACCUAAGGCCAACGAUAUGGUGAAGGCAUAGUCUAGGGAGUGGCGAAAGUCACACAAACCGG [C82G A111C A145C C150A C169U], the reverse-splicing fitness was 0.00955.
Turning to GUGCCUUGCGCCGGGAAACCACGCAAGGGAUGGUGUCAAAUUCGGCGAAACCUAAGCGCCCGCCCGGGCGUAUGGCAACGCGGAGCCAAGCUUCGGCGCCUGCGCCGAUGCAGGUGUAGAGACUAGACGGCACCCACCUAAGGCCAACGAUAUGGUGAAGGCAUAGUCGAGGGAGUGGCGAAAGUCACACAAACCGG [C82G A111C A145C C150A C169G], the reverse-splicing fitness was 0.00856.
Turning to GUGCCUUGCGCCGGGAAACCACGCAAGGGAUGGUGUCAAAUUCGGCGAAACCUAAGCGCCCGCCCGGGCGUAUGGCAACGCGGAGCCAAGCUUCGGCGCCUGCGCCGAUGCAGGUGUAGAGACUAGACGGCACCCACCUAAGGCCAACGAUAUGGUGAAGGCAUAGUCAAGGGAGUGGCGAAAGUCACACAAACCGG [C82G A111C A145C C150A C169A], the reverse-splicing fitness came to 0.00842.
With GUGCCUUGCGCCGGGAAACCACGCAAGGGAUGGUGUCAAAUUCGGCGAAACCUAAGCGCCCGCCCGGGCGUAUGGCAACGCGGAGCCAAGCUUCGGCGCCUGCGCCGAUGCAGGUGUAGAGACUAGACGGCACCCACCUAAGGCCAACGAUAUGGUGAAGGCAUAGUCUAGGGAGAGGCGAAAGUCACACAAACCGG [C82G A111C A145C C150A C169U U176A], the reverse-splicing fitness amounted to 0.0135.
Take GUGCCUUGCGCCGGGAAACCACGCAAGGGAUGGUGUCAAAUUCGGCGAAACCUAAGCGCCCGCCCGGGCGUAUGGCAACGCGGAGCCAAGCUUCGGCGCCUGCGCCGAUGCAGGUGUAGAGACUAGACGGCACCCACCUAAGGCCAACGAUAUGGUGAAGGCAUAGUCUAGGGAGCGGCGAAAGUCACACAAACCGG [C82G A111C A145C C150A C169U U176C]: the reverse-splicing fitness was 0.0122.
GUGCCUUGCGCCGGGAAACCACGCAAGGGAUGGUGUCAAAUUCGGCGAAACCUAAGCGCCCGCCCGGGCGUAUGGCAACGCGGAGCCAAGCUUCGGCGCCUGCGCCGAUGCAGGUGUAGAGACUAGACGGCACCCACCUAAGGCCAACGAUAUGGUGAAGGCAUAGUCUAGGGAGGGGCGAAAGUCACACAAACCGG [C82G A111C A145C C150A C169U U176G]: the reverse-splicing fitness turned out to be 0.0092.
The value for GUGCCUUGCGCCGGGAAACCACGCAAGGGAUGGUGUCAAAUUCGGCGAAACCUAAGCGCCCGCCCGGGCGUAUGGCAACGCGGAGCCAAGCUUCGGCGCCUGCGCCGAUGCAGGUGUAGAGACUAGACGGCACCCACCUAAGGCCAACGCUAUGGUGAAGGCAUAGUCCAGGGAGUGGCGAAAGUCACACAAACCGG [C82G A111C A145C] was 0.29; that for GUGCCUUGCGCCGGGAAACCACGCAAGGGAUGGUGUCAAAUUCGGCGAAACCUAAGCGCCCGCCCGGGCGUAUGGCAACGCGGAGCCAAGCUUCGGCGCCUGCGCCGAUGCAGGUGUAGAGACUAGACGGCACCCACCUAAGGCCAACGAUAUGGUGAAGGCAUAGUCGAGGGAGAGGCGAAAGUCACACAAACCGG [C82G A111C A145C C150A C169G U176A] was 0.0237.
The figure for GUGCCUUGCGCCGGGAAACCACGCAAGGGAUGGUGUCAAAUUCGGCGAAACCUAAGCGCCCGCCCGGGCGUAUGGCAACGCGGAGCCAAGCUUCGGCGCCUGCGCCGAUGCAGGUGUAGAGACUAGACGGCACCCACCUAAGGCCAACGAUAUGGUGAAGGCAUAGUCGAGGGAGCGGCGAAAGUCACACAAACCGG [C82G A111C A145C C150A C169G U176C] is 0.0224; for GUGCCUUGCGCCGGGAAACCACGCAAGGGAUGGUGUCAAAUUCGGCGAAACCUAAGCGCCCGCCCGGGCGUAUGGCAACGCGGAGCCAAGCUUCGGCGCCUGCGCCGAUGCAGGUGUAGAGACUAGACGGCACCCACCUAAGGCCAACGAUAUGGUGAAGGCAUAGUCGAGGGAGGGGCGAAAGUCACACAAACCGG [C82G A111C A145C C150A C169G U176G] it is 0.00878.
For GUGCCUUGCGCCGGGAAACCACGCAAGGGAUGGUGUCAAAUUCGGCGAAACCUAAGCGCCCGCCCGGGCGUAUGGCAACGCGGAGCCAAGCUUCGGCGCCUGCGCCGAUGCAGGUGUAGUGACUAGACGGCACCCACCUAAGGCAAACGCUAUGGUGAAGGCAUAGUCAAGGGAGAGGCGAAAGUCACACAAACCGG [C82G A111C A120U C169A U176A], the reverse-splicing fitness was found to be 0.00425.
The figure for GUGCCUUGCGCCGGGAAACCACGCAAGGGAUGGUGUCAAAUUCGGCGAAACCUAAGCGCCCGCCCGGGCGUAUGGCAACGCGGAGCCAAGCUUCGGCGCCUGCGCCGAUGCAGGUGUAGUGACUAGACGGCACCCACCUAAGGCAAACGCUAUGGUGAAGGCAUAGUCAAGGGAGGGGCGAAAGUCACACAAACCGG [C82G A111C A120U C169A U176G] is 0.00246; for GUGCCUUGCGCCGGGAAACCACGCAAGGGAUGGUGUCAAAUUCGGCGAAACCUAAGCGCCCGCCCGGGCGUAUGGCAACGCGGAGCCAAGCUUCGGCGCCUGCGCCGAUGCAGGUGUAGUGACUAGACGGCACCCACCUAAGGCAAACGCUAUGGUGAAGGCAUAGUCAAGGGAGCGGCGAAAGUCACACAAACCGG [C82G A111C A120U C169A U176C] it is 0.00457.
The figure for GUGCCUUGCGCCGGGAAACCACGCAAGGGAUGGUGUCAAAUUCGGCGAAACCUAAGCGCCCGCCCGGGCGUAUGGCAACGCGGAGCCAAGCUUCGGCGCCUGCGCCGAUGCAGGUGUAGUGACUAGACGGCACCCACCUAAGGCAAACGCUAUGGUGAAGGCAUAGUCUAGGGAGUGGCGAAAGUCACACAAACCGG [C82G A111C A120U C169U] is 0.00571.
